Source: paper PMC6901573 (Scientific Reports, 2019)

B1: Human alpha-semihemoglobin, oxidized (met) form (complex)
chain 1: not shown
chain 2: not shown
B2: Human beta-semihemoglobin, oxidized (met) form (complex)
chain 1: not shown
chain 2: not shown
B3: Human hemoglobin A, oxidized form (methemoglobin, MetHb) (complex)
chain 1: not shown
chain 2: not shown

Columns and labels:
[1] = molecular target: T1, IsdB (NEAT1 and NEAT2 domains connected by the helical linker), wild type (S. aureus, UniProt Q8NX66 125-485); assay: SPR; details: both partners purified
[2] = molecular target: T1, IsdB (NEAT1 and NEAT2 domains connected …); assay: SPR; details: both partners purified; remark: listed apart in the source

T1 sequence (Q8NX66 125-485): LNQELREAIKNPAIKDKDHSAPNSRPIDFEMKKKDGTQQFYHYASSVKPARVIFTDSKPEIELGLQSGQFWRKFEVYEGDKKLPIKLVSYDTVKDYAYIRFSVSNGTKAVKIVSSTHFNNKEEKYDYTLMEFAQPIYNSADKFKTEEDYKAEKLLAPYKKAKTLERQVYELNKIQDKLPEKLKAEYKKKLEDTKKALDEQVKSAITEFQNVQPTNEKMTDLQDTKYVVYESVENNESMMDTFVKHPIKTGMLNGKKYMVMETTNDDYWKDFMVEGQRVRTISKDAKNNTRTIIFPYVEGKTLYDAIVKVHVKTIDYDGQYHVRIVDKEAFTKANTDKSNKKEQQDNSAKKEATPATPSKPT

Binder	KD of the first, reversible step of the two-state irreversible model [1] [nM]	KD of the first, reversible step of the two-state irreversible model [2] [nM]
B1	108 ± 11	–
B2	91 ± 5	–
B3	70 ± 6	69 ± 1
